Where a SMILES comes first, the peptide text is derived from it. [ ]: non-standard residue; d: D form.
Columns and labels:
PKC-ε = target: T1, PKC-ε (Homo sapiens, UniProt Q02156); assay: Competitive binding assay using cell extracts (Western blot); set-up: cytoplasmic extracts from different cell lines expressing appropriate PKC isoforms; endogenous in cells; host or cells: CCD16Lu, LnCAP, Du145, MDAMB231, LS180; key: —: no detectable affinity; Low to very low affinity at 10X or 20X or both PRE concentrations in at least one cell line in the cell extract assay; Low affinity in purified isoform assay.; Moderate affinity at 10X or 20X or both PRE concentrations in at least one cell line in the cell extract assay.; High affinity at 10X or 20X or both PRE concentrations in at least one cell line in the cell extract assay; High affinity in purified isoform assay; conditions: Cell extract; PRE 10X or 20X antibody concentration
T1 sequence (Q02156 1-737): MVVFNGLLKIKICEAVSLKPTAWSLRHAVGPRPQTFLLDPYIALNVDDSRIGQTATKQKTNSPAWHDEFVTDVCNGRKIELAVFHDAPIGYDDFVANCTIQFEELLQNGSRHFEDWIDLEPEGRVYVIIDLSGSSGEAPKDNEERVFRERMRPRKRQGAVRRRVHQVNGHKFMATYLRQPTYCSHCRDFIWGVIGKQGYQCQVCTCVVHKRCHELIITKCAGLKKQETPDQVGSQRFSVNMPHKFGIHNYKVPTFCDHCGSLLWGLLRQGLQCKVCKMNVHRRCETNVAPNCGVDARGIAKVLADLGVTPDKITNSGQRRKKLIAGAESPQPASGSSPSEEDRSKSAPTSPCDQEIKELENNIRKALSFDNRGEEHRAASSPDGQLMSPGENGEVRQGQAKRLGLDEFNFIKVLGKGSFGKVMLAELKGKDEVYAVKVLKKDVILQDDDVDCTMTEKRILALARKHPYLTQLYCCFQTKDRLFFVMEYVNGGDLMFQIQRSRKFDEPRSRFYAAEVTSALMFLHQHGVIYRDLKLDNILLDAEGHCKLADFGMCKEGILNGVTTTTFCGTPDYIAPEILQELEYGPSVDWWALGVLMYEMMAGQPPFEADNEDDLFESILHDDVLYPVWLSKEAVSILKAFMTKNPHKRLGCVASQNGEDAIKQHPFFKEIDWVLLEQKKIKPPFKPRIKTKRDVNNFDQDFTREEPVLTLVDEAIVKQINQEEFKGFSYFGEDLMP
Method: (§1) Binding efficiency and specificity of the peptides PRE 2, 3, 4, 5, 6, 7, 8, 9, 10, 11, 12 and 13 (see Table 4) was also tested using cytoplasmic extracts from different cell lines expressing appropriate PKC isoforms as described for Example 1. Briefly, the protein cytoplasmic extracts were separated by electrophoresis and transferred onto nitrocellulose membranes by standard Western blotting procedures. The bands on the Western blots were detected with matching primary antibodies and alkaline phosphatase conjugated secondary antibody. The bands were then scanned and the relative density measurements obtained.
(§2) This procedure to assess the binding characteristics of the PREs is based on competition binding of the PRE with the primary anti-isoform PKC specific antibodies. The lower the measured band density, the greater the binding of the PRE to the PKC isoform. The PREs were added at 10 and 20 times (10×, 20×) the primary antibody concentration, according to classical competition between antigenic peptide and primary antibody. The following cell lines (obtained from the ATCC) were used: H661—NCI human lung carcinoma NSCLC; MDAMB231—human highly invasive breast cancer cell line from pleural effusion; LS180—human colon adenocarcinoma; LnCAP—human prostate adenocarcinoma; CCD16Lu—human lung fibroblasts; Du145—human prostate carcinoma brain metastasis, and T24—human bladder carcinoma.
(§3) In these cases, the 20× band density figures relative to control and 10× values were reliable.

PKC-ζ = target: T2, PKC-ζ (Homo sapiens, UniProt Q05513); assay: as above; set-up: cytoplasmic extracts from different cell lines expressing appropriate PKC isoforms; endogenous in cells; host or cells: H661, CCD16Lu, LnCAP, MDAMB231, Du145; key: —: no detectable affinity; Low to very low affinity at 10X or 20X or both PRE concentrations in at least one cell line in the cell extract assay; Low affinity in purified isoform assay.; Moderate affinity at 10X or 20X or both PRE concentrations in at least one cell line in the cell extract assay.; High affinity at 10X or 20X or both PRE concentrations in at least one cell line in the cell extract assay; High affinity in purified isoform assay; conditions: Cell extract; PRE 10X or 20X antibody concentration
T2 sequence (Q05513 1-592): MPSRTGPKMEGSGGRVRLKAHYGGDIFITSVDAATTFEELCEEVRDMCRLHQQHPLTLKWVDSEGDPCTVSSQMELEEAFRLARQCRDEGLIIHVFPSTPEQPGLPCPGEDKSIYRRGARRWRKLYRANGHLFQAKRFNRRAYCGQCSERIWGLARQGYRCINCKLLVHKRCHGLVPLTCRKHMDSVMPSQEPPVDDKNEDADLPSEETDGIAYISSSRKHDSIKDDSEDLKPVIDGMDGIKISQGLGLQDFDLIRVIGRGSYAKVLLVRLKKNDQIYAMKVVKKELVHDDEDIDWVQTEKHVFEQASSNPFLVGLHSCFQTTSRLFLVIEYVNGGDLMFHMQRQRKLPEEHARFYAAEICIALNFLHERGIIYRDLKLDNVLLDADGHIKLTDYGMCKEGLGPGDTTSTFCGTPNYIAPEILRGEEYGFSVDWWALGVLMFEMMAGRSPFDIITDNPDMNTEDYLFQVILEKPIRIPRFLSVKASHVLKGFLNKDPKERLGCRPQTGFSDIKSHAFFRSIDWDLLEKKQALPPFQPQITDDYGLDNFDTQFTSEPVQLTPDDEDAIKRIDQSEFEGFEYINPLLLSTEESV
Method: as §1, §2, §3

Row | Compound | Affinity for PKC isoform ε (PKC-ε) | Affinity for PKC isoform ζ (PKC-ζ)
1 | CC[C@H](C)[C@H](NC(=O)[C@H](CO)NC(=O)[C@@H](NC(=O)CNC(=O)[C@@H](NC(=O)[C@H](CC(C)C)NC(=O)[C@H](CC(N)=O)NC(=O)[C@H](CCC(N)=O)NC(=O)[C@H](C)NC(=O)[C@H](CC(=O)O)NC(=O)CNC(=O)CNC(=O)[C@H](CCCCN)NC(=O)[C@@H](NC(=O)[C@H](CCC(=O)O)NC(=O)[C@H](CCC(N)=O)NC(=O)[C@@H](NC(=O)CNC(=O)[C@H](CCCCN)NC(=O)[C@H](C)NC(C)=O)[C@@H](C)CC)C(C)C)[C@@H](C)CC)[C@@H](C)CC)C(N)=O [PRE 3] (Ac-AKGIQEVKGGDAQNLIGISI-NH2) | L | —
2 | CC[C@H](C)[C@H](NC(=O)[C@H](CO)NC(=O)[C@@H](NC(=O)CNC(=O)[C@@H](NC(=O)[C@H](CC(C)C)NC(=O)[C@H](CC(N)=O)NC(=O)[C@H](CCC(N)=O)NC(=O)[C@H](C)NC(=O)[C@H](CC(=O)O)NC(=O)[C@H](CCCCN)NC(C)=O)[C@@H](C)CC)[C@@H](C)CC)C(N)=O [PRE 4, Ac-KDAQNLIGISI-NH2] (Ac-KDAQNLIGISI-NH2) | H/L | —
3 | CC[C@H](C)[C@H](NC(=O)[C@H](CO)NC(=O)[C@@H](NC(=O)CNC(=O)[C@@H](NC(=O)[C@H](CC(C)C)NC(=O)[C@H](CC(N)=O)NC(=O)[C@H](CCC(N)=O)NC(=O)[C@H](C)NC(=O)[C@H](CC(=O)O)NC(=O)[C@H](CCCCN)NC(=O)CNC(=O)CNC(=O)[C@H](CCCCN)NC(=O)[C@@H](NC(=O)[C@H](CCC(=O)O)NC(=O)[C@H](CCC(N)=O)NC(=O)[C@@H](NC(=O)CNC(=O)[C@H](CCCCN)NC(=O)[C@H](C)NC(C)=O)[C@@H](C)CC)C(C)C)[C@@H](C)CC)[C@@H](C)CC)C(N)=O [PRE 5] (Ac-AKGIQEVKGGKDAQNLIGISI-NH2) | L | L/H
4 | Ac-ISIGILNQADK-NH2 [PRE 10] | M/L | M/L
5 | Ac-ISIGILQNADK-NH2 (not fully specified; printed as Ac-ISIGILQNADK-NH2) [PRE 7] | — | —
6 | Ac-KDANQLIGISI-NH2 [PRE 6] | M | —
7 | Ac-KDAQNLI-NH2 [PRE 12] | — | M/H
8 | Ac-RDAQNLI-NH2 [PRE 13] | — | —
9 | Ac-RDAQNLIGISI-NH2 [PRE 11] | — | —
10 | Ac-isigilqnadk-NH2 (Ac-[dI][dS][dI]G[dI][dL][dQ][dN][dA][dD][dK]-NH2; SMILES CC[C@@H](C)[C@@H](NC(C)=O)C(=O)N[C@H](CO)C(=O)N[C@@H](C(=O)NCC(=O)N[C@@H](C(=O)N[C@H](CC(C)C)C(=O)N[C@H](CCC(N)=O)C(=O)N[C@H](CC(N)=O)C(=O)N[C@H](C)C(=O)N[C@H](CC(=O)O)C(=O)N[C@H](CCCCN)C(N)=O)[C@H](C)CC)[C@H](C)CC) [PRE 9] | M/L | M/L
11 | ILEDKGGDAQNLIGISI [PRE 8] | L | 
12 | RRKKGGKDFVVKR [PRE 1] |  | L

— patent publication US20110039770A1, “INHIBITORS OF PROTEIN KINASE C ISOFORMS AND USES THEREOF” (PHARMAGAP INC., priority 2005, published 2011)
